Data as given in publication PMC8216552.
Changes are numbered by the printed parent chain. Several values for one entry are separate records, joined by “and”; a condition that tells them apart may be missing. Identical values can stand only once.

Key:
[1] = target: stabilized soluble CON-S envelope trimer (stabilized CON-S SOSIP gp140) (HIV-1 (group M consensus))
[2] = substrate: CON-S gp120 with the N362 glycosylation site (HIV-1 (group M consensus))
[3] = substrate: CON-S gp120 (HIV-1 (group M consensus)); assay: ELISA; direct ELISA: HIV-1 envelope protein (2 ug/mL) in sodium bicarbonate buffer coated on 384-well plates overnight at 4 C; serially diluted antibodies 90 min; detected with HRP anti-IgG Fc; titres as area under the log-transformed curve (log AUC)
[4] = target: stabilized soluble CON-S envelope trimer (stabilized CON-S SOSIP gp140) (HIV-1 (group M consensus)); assay: negative stain electron microscopy; chimeric CON-S DS.SOSIP-664 trimers with a 10-fold molar excess of Fab, 1 h at room temperature; uranyl formate stain; 2D classes and 3D reconstruction (RELION)

B1: DH840.1 IgG (antibody, V domains shown)
VH: QVQLKESGPGLVRPSETLSLTCAVSGTSINSAYAWGWVRLPPGKGLEWIMTVYTSTGNTYSDPSLKSRVTISKDTSKNQFSLRLSSVTVEDTAVYFCARADGSDSGWPHFDNWGQGLLVTVSS
VL: EIMVTQSPATLSVSPGERATLSCRASQSVRNRIAWYQQKPGQSPRLLIYDASIRAPGIPDRLSGSGSGTEFTLTINSLEPSDVAVYFCQLEANWLTFGGGTKVEIK
maximum percent neutralization of wild-type CON-S pseudovirus (TZM-bl cells) [1]: 83% | maximum percent neutralization of CON-S pseudovirus with the N362 glycan (TZM-bl cells) [2]: 45%

B2: DH840.1 W100bA (antibody, V domains shown)
VH: B1 VH with W107A
VL: B1 VL
percent reduction of binding against wild-type DH840.1 [3]: 64%

B3: DH840.1 Fab (Fab, V domains shown)
VH: B1 VH
VL: B1 VL
percent of trimers bound by Fab [4]: 33% | stoichiometry N (Fab per trimer) [4]: 1

B4: DH842 Fab (Fab, V domains shown)
VH: QVQLQESGPGLMQPAETLSLTCAVSRDSIGSGYYAWGWFRQVPGKGLEWIVTIYTSTGNIYDESPLKSRVTISRDTSKNQFSLKLTSVTPADTAVYFCAREGCNTVFCSAGWFDVWGPGLLVTVSS
VL: QAVLTQPTALSASPGASARLTCTLRSGISVADYRIFWYQQRPGSPPRYLLNYRTDSDHHQGSGVPSRFSGSKDDSANTGFLVISGLQSEDEADYHCMIRHNTAYIFGGGTRLTLL
percent of analyzed Envs with one Fab bound [4]: 34% | percent of analyzed Envs with two Fabs bound [4]: 53%

B5: DH846.1 Fab (Fab, V domains shown)
VH: QLQLQESGPGLVKPSETLSLTCDVSGVSISSNYGWGWIRQPPGKGLDWIVTIYGGTGNTYYAPSLEGRVAISKDASKNQFSLRLNSVTAADTAVYYCARKITYSSGWYYFDYWGQGVLVAVSS
VL: EIVMTQSPATLSLSPGERATLSCRASQSVSSRLAWYQQKPGQAPRLLIYDASNRATGIPDRFSGSGSGTEFTLTISGLEPEDVAVYFCQEDHNWSTFGQGTKVEIK
stoichiometry N (Fabs per trimer) [4]: 2 and 3

B6: DH845.1 Fab (Fab, V domains shown)
VH: QVQLQESGPGLVKPSETLSLTCAVSGGSMSSVYQGWGWIRQPPGKGLEWIATTYTSTGNIYYNPSLKGRGTVSRDTSKNQFSLKLSAVTAADTAVYYCARLNLGDSGDYTGVSEYFDFWGQGALVTVSS
VL: AIQLTQSPSALSASVGDRVTISCRASQNIYSNLAWYQQKPGKAPKLLIFGASRLQSGIPSRFSGSGSGTDFTLTISSLQPEDSATYYCQQVYSNFYSFGQGTKVEIK
stoichiometry N (Fabs per trimer) [4]: 2 and 3
